Data reported in patent US20260201008A1, “SECRETIN-DERIVED GLP1R SELECTIVE AGONISTS” (GUBRA A/S, priority 2023, published 2026).
Numbered stars: 1 amine (or outer) side, 2 acyl side, 3 side chain; on linkers, the order of the positions; unused ones are H or OH. Square brackets hold non-standard residues; d marks the D form. Side chains are listed from the residue outwards. Ends that are not written are not given here. * marks the point of attachment. C20 diacid = O=C(O)CCCCCCCCCCCCCCCCCCC(=O)*; γGlu = O=C(O)[C@H](CCC(=O)[*:2])N[*:1]; AEEA = NCCOCCOCC(=O)O; Aib = CC(C)(N)C(=O)O

Assays:
[1] = target: human GLP-1 receptor (hGLP1R) (human, UniProt P43220 24-463); assay: cell-based or functional assay
[2] = target: human secretin receptor (hSCTR) (human, UniProt P47872 23-440); assay: cell-based or functional assay
human secretin receptor (hSCTR), sequence (P47872 23-440): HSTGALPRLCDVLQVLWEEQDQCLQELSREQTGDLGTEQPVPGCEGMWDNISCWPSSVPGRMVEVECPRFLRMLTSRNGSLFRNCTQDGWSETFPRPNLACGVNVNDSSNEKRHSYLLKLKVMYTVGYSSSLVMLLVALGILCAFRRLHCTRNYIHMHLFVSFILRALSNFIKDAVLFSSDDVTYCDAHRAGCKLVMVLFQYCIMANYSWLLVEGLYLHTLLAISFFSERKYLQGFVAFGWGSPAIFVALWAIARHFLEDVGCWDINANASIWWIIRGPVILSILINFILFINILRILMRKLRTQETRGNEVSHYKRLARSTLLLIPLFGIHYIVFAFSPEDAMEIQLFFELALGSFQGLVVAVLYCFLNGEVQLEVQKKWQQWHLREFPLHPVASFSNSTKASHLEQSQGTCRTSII

For H[Aib]EGTFTSDVSYLKEEA[Aib][Aib]QRFLEHLV-NH2 (not fully specified (residue 14)) [SEQ ID NO: 152], the “pEC50 hGLPR1” value [1] was 10.9 -log M and the “pEC50 hSCTR” value [2] was 5.4 -log M.

In the case of H[Aib]EGTFTSDVSYLYEEA[Aib]LQRFLEKLV-NH2 (not fully specified (residue 25)) [SEQ ID NO: 143], the “pEC50 hGLPR1” value [1] is reported as 11 -log M and the “pEC50 hSCTR” value [2] is reported as 6.1 -log M.

B1: SEQ ID NO: 144 (peptide)
peptide: H[Aib]EGTFTSDVSYLKEEA[Aib]LQRFLEYLV-NH2
modifications: not fully specified (residue 14); also: K14 lipidated with C20DA[γE][OEG][OEG]- or C18DA[γE][OEG][OEG]-
With B1 the “pEC50 hGLPR1” value [1] was 10.8 -log M and the “pEC50 hSCTR” value [2] was 6.6 -log M.

With H[Aib]EGTFTSDVSRLK([AEEA-AEEA-γGlu-C20 diacid])EEAASQRFLEHLV-NH2 [SEQ ID NO: 17] the “pEC50 hGLPR1” value [1] was 10.6 -log M and the “pEC50 hSCTR” value [2] was 6.6 -log M.

H[Aib]EGTFTSDVSVLKEEA[Aib]LQRFLEHLV-NH2 (not fully specified (residue 14)) [SEQ ID NO: 138] was tested, and the “pEC50 hGLPR1” value [1] was 10.9 -log M and the “pEC50 hSCTR” value [2] was 7.5 -log M.

With H[Aib]YGTFTSDVSYLKEEA[Aib]LQRFLEHLV-NH2 (not fully specified (residue 14)) [SEQ ID NO: 159] the “pEC50 hGLPR1” value [1] was 9.1 -log M and the “pEC50 hSCTR” value [2] was 4.6 -log M.

For H[Aib]QGTFTSDVSYLKEEA[Aib]LQRFLEHLV-NH2 (not fully specified (residue 14)) [SEQ ID NO: 156], the “pEC50 hGLPR1” value [1] was 10.8 -log M and the “pEC50 hSCTR” value [2] was 4.4 -log M.

In the case of H[Aib]EGTFTSDVSNLKEEA[Aib]LQRFLEHLV-NH2 (not fully specified (residue 14)) [SEQ ID NO: 136], the “pEC50 hGLPR1” value [1] is reported as 10.9 -log M and the “pEC50 hSCTR” value [2] is reported as 7.9 -log M.

B2: SEQ ID NO: 142 (peptide)
peptide: HGEGTFTSDVSYLKEEA[Aib]LQRFLEHLV-NH2
modifications: not fully specified (residue 14); also: K14 lipidated with C20DA[γE][OEG][OEG]- or C18DA[γE][OEG][OEG]-
B2 was tested, and the “pEC50 hGLPR1” value [1] was 10.9 -log M and the “pEC50 hSCTR” value [2] was 4.7 -log M.

With H[Aib]EGTFTSDVSVLKE[Aib]AAAQRFLEHLV-NH2 (not fully specified (residue 14)) [SEQ ID NO: 15] the “pEC50 hGLPR1” value [1] was 10.1 -log M and the “pEC50 hSCTR” value [2] was 6.5 -log M.

With H[Aib]EGTFTSDVSLLKEEA[Aib]LQRFLEHLV-NH2 (not fully specified (residue 14)) [SEQ ID NO: 149] the “pEC50 hGLPR1” value [1] was 10.9 -log M and the “pEC50 hSCTR” value [2] was 7.5 -log M.

For H[Aib]EGTFTSDVSYLKEEA[Aib]GQRFLEHLV-NH2 (not fully specified (residue 14)) [SEQ ID NO: 154], the “pEC50 hGLPR1” value [1] was 10.8 -log M and the “pEC50 hSCTR” value [2] was 5.4 -log M.

For H[Aib]EGTFTSDVSYLKEEA[Aib]LQRFLEELV-NH2 (not fully specified (residue 14)) [SEQ ID NO: 151], the “pEC50 hGLPR1” value [1] was 10.6 -log M and the “pEC50 hSCTR” value [2] was 6.9 -log M.

With H[Aib]EGTFTSDVSYLKEEA[Aib]TQRFLEHLV-NH2 (not fully specified (residue 14)) [SEQ ID NO: 162] the “pEC50 hGLPR1” value [1] was 12.2 -log M and the “pEC50 hSCTR” value [2] was 6.9 -log M.

HAEGTFTSDVSYLK([AEEA-AEEA-γGlu-C20 diacid])EEA[Aib]LQRFLEHLV-NH2 [SEQ ID NO: 166] was tested, and the “pEC50 hGLPR1” value [1] was 11.1 -log M and the “pEC50 hSCTR” value [2] was 6.5 -log M.

With H[Aib]EGTFTSDVSYLKEEAALQRFLEHLV-NH2 (not fully specified (residue 14)) [SEQ ID NO: 137] the “pEC50 hGLPR1” value [1] was 11.1 -log M and the “pEC50 hSCTR” value [2] was 7.1 -log M.

In the case of H[Aib]EGTFTSDVSALKEEA[Aib]LQRFLEHLV-NH2 (not fully specified (residue 14)) [SEQ ID NO: 148], the “pEC50 hGLPR1” value [1] is reported as 10.8 -log M and the “pEC50 hSCTR” value [2] is reported as 7.2 -log M.

For H[Aib]EGTFTSDVSGLK([AEEA-AEEA-γGlu-C20 diacid])EEA[Aib]LQRFLEHLV-NH2 [SEQ ID NO: 167], the “pEC50 hGLPR1” value [1] was 11.2 -log M and the “pEC50 hSCTR” value [2] was 7 -log M.

B3: SEQ ID NO: 145 (peptide)
peptide: H[Aib]EGTFTSDVSHLKEEA[Aib]LQRFLEHLV-NH2
modifications: not fully specified (residue 14); also: K14 lipidated with C20DA[γE][OEG][OEG]- or C18DA[γE][OEG][OEG]-
B3 was tested, and the “pEC50 hGLPR1” value [1] was 11.1 -log M and the “pEC50 hSCTR” value [2] was 7.2 -log M.

In the case of H[Aib]EGTFTSDVSYLKEEA[Aib]QQRFLEHLV-NH2 (not fully specified (residue 14)) [SEQ ID NO: 157], the “pEC50 hGLPR1” value [1] is reported as 11.6 -log M and the “pEC50 hSCTR” value [2] is reported as 6.5 -log M.

H[Aib]EGTFTSDVSYLK([AEEA-AEEA-γGlu-C20 diacid])EEA[Aib]LQRFLEWLV-NH2 [SEQ ID NO: 169] was tested, and the “pEC50 hGLPR1” value [1] was 10.4 -log M and the “pEC50 hSCTR” value [2] was 6.3 -log M.

With H[Aib]EGTFTSDVSDLKEEA[Aib]LQRFLEHLV-NH2 (not fully specified (residue 14)) [SEQ ID NO: 153] the “pEC50 hGLPR1” value [1] was 10.7 -log M and the “pEC50 hSCTR” value [2] was 6.5 -log M.

In the case of H[Aib]EGTFTSDVS[Aib]LKEEA[Aib]LQRFLEHLV-NH2 (not fully specified (residue 14)) [SEQ ID NO: 163], the “pEC50 hGLPR1” value [1] is reported as 10.9 -log M and the “pEC50 hSCTR” value [2] is reported as 7.4 -log M.

H[Aib]EGTFTSDVSYLKEEA[Aib]LQRFLEKLV-NH2 (not fully specified (residue 14)) [SEQ ID NO: 147] was tested, and the “pEC50 hGLPR1” value [1] was 11.3 -log M and the “pEC50 hSCTR” value [2] was 7.2 -log M.

B4: SEQ ID NO: 141 (peptide)
peptide: H[Aib]EGTFTSDVSYLKEEA[Aib]LQRYLEHLV-NH2
modifications: not fully specified (residue 14); also: K14 lipidated with C20DA[γE][OEG][OEG]- or C18DA[γE][OEG][OEG]-
For B4, the “pEC50 hGLPR1” value [1] was 11.4 -log M and the “pEC50 hSCTR” value [2] was 6.6 -log M.

With H[Aib]EGTFTSDVSYLHEEA[Aib]LQRFLEKLV-NH2 (not fully specified (residue 25)) [SEQ ID NO: 164] the “pEC50 hGLPR1” value [1] was 10.7 -log M and the “pEC50 hSCTR” value [2] was 6.6 -log M.

H[Aib]EGTFTSDVSTLKE[Aib]AAEQRFLEHLV-NH2 (not fully specified (residue 14)) [SEQ ID NO: 16] was tested, and the “pEC50 hGLPR1” value [1] was 10.4 -log M and the “pEC50 hSCTR” value [2] was 6.9 -log M.

B5: SEQ ID NO: 140 (peptide)
peptide: H[Aib]EGTFTSDVSPLKEEA[Aib]LQRFLEHLV-NH2
modifications: not fully specified (residue 14); also: K14 lipidated with C20DA[γE][OEG][OEG]- or C18DA[γE][OEG][OEG]-
For B5, the “pEC50 hGLPR1” value [1] was 8.9 -log M and the “pEC50 hSCTR” value [2] was 4.7 -log M.

In the case of H[Aib]WGTFTSDVSYLKEEA[Aib]LQRFLEHLV-NH2 (not fully specified (residue 14)) [SEQ ID NO: 160], the “pEC50 hGLPR1” value [1] is reported as 9.1 -log M and the “pEC50 hSCTR” value [2] is reported as 4.6 -log M.

B6: SEQ ID NO: 14 (peptide)
peptide: H[Aib]EGTFTSDVSELKEEAAQQRFLEHLV-NH2
modifications: not fully specified (residue 14); also: K14 lipidated with C20DA[γE][OEG][OEG]- or C18DA[γE][OEG][OEG]-
B6 was tested, and the “pEC50 hGLPR1” value [1] was 10.7 -log M and the “pEC50 hSCTR” value [2] was 6.7 -log M.

With H[Aib]EGTFTSDVSYLKEEA[Aib]EQRFLEHLV-NH2 (not fully specified (residue 14)) [SEQ ID NO: 150] the “pEC50 hGLPR1” value [1] was 11.3 -log M and the “pEC50 hSCTR” value [2] was 5.5 -log M.

With H[Aib]EGTFTSDVSRLK([AEEA-AEEA-γGlu-C20 diacid])EFAAAQRFLEHLV-NH2 [SEQ ID NO: 2] the “pEC50 hGLPR1” value [1] was 10.1 -log M and the “pEC50 hSCTR” value [2] was 6.3 -log M.

With H[Aib]EGTFTSDVSYLKEEA[Aib]VQRFLEHLV-NH2 (not fully specified (residue 14)) [SEQ ID NO: 161] the “pEC50 hGLPR1” value [1] was 11.4 -log M and the “pEC50 hSCTR” value [2] was 6.8 -log M.

With H[Aib]EGTFTSDVSTLK([AEEA-AEEA-γGlu-C20 diacid])EEA[Aib]LQRFLEHLV-NH2 [SEQ ID NO: 165] the “pEC50 hGLPR1” value [1] was 11.2 -log M and the “pEC50 hSCTR” value [2] was 8 -log M.

In the case of H[Aib]EGTFTSDVSYLKEEA[Aib]AQRFLEHLV-NH2 (not fully specified (residue 14)) [SEQ ID NO: 146], the “pEC50 hGLPR1” value [1] is reported as 11.6 -log M and the “pEC50 hSCTR” value [2] is reported as 5.7 -log M.

For H[Aib]VGTFTSDVSYLKEEA[Aib]LQRFLEHLV-NH2 (not fully specified (residue 14)) [SEQ ID NO: 155], the “pEC50 hGLPR1” value [1] was 10.9 -log M and the “pEC50 hSCTR” value [2] was 4.6 -log M.

In the case of H[Aib]EGTFTSDVSYLKEEA[Aib]IQRFLEHLV-NH2 (not fully specified (residue 14)) [SEQ ID NO: 139], the “pEC50 hGLPR1” value [1] is reported as 11.2 -log M and the “pEC50 hSCTR” value [2] is reported as 6.9 -log M.

For H[Aib]EGTFTSDVSYL[Aib]EEA[Aib]LQRFLEKLV-NH2 (not fully specified (residue 25)) [SEQ ID NO: 158], the “pEC50 hGLPR1” value [1] was 10.4 -log M and the “pEC50 hSCTR” value [2] was 5.8 -log M.
